From patent publication US20040058870A1 (Bayer, published 2004)
Read-outs that look alike come from different tables or passages of the source. Ends that are not written are not given here.

T1: VPAC2 receptor (human, UniProt P41587 24-438)
T1 sequence (looked up): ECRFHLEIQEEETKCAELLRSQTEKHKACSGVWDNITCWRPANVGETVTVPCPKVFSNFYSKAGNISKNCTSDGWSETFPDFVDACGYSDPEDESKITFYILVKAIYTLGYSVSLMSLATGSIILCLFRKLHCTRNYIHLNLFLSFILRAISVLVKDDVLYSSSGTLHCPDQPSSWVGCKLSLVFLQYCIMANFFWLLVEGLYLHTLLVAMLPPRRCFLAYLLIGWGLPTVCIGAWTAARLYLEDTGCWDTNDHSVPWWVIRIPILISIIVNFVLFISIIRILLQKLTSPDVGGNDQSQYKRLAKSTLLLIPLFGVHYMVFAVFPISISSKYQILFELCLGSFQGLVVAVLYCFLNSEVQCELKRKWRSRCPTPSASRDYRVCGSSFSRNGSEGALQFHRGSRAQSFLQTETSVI

T2: VPAC1 receptor (UniProt P32241 31-457, limits assumed)
T2 sequence (looked up): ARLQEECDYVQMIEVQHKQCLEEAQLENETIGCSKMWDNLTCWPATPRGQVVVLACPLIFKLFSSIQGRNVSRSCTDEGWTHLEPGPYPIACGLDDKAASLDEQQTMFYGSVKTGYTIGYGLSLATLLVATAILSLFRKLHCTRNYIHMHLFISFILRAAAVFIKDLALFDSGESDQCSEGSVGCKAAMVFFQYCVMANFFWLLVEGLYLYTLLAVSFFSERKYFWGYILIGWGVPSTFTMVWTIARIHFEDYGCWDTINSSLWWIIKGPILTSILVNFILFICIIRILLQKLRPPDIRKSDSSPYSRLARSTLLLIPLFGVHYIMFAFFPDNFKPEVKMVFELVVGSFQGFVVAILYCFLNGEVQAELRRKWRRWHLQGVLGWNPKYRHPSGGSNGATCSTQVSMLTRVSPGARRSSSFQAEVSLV


How the values were obtained:
Test in all cases: cell-based or functional assay
[1] = target: T1, VPAC2 receptor
[2] = target: T2, VPAC1 receptor
[3] = target: T1, VPAC2 receptor; remark: listed apart in the source
[4] = target: T1, VPAC2 receptor; remark: listed apart in the source

Row | Molecule | EC50 (nM), cAMP SPA [1] | EC50 (nM), cAMP SPA [2] | EC50 (nM), cAMP SPA [3] | maximal level of receptor activation relative to PACAP-27, cAMP SPA [4]
1 | PACAP-27 (from UniProt P18509 132-158) (peptide) | 0.09 nM | – | – | –
2 | HSDAVFTDQYTRLRKQVAAKKYLQSIKQKRYC (ends and bridges not checked) [P12] | – | > 1000 nM | – | –
3 | HSDAVFTDQYTRLRKQVAAKKYLQSIKQKRYC (22 kD PEG on the C-terminal Cys via maleimide (thioether) linkage) [P12 plus 22 kD PEG] | – | > 1000 nM | – | –
4 | HSDAVFTDQYTRLRKQVAAKKYLQSIKQKRYC (43 kD PEG on the C-terminal Cys via maleimide (thioether) linkage) [P12 plus 43 kD PEG] | – | > 1000 nM | – | –
5 | Ac-HTDAVFTDQYTRLRKQVAAKKYLQSIKQKRY (ends and bridges not checked) [P8] | – | 130 nM | 0.19 nM | 100%
6 | HTEAVFTDQYTRLRKQVAAKKYLQSIKQKRY [P7] | – | > 1000 nM | 7.81 nM | 100%
7 | HSDAVFTDQYTRLRKQVAAKKYLQSIKQKRY [P5] | – | 232 nM | – | –
